Reference: patent US20250121075A1, “ALPHA-FETOPROTEIN BIOCONJUGATES FOR DISEASE TREATMENT” (priority 2021, published 2025)
Numbering of substitutions follows the chain as printed.

Tests used:
[1] = biological target: alpha-fetoprotein (AFP) receptor (AFPR) (human); experiment: AF-647 labeled rhAFP incubated with MCF7 cells at 37 C for 0.5, 2 and 5 h, plate reader fluorescence
[2] = biological target: alpha-fetoprotein (AFP) receptor (AFPR) (human); experiment: AF-647 labeled rhAFP incubated with MOLT-4 cells at 37 C for 0.5, 2 and 5 h, plate reader fluorescence
[3] = biological target: alpha-fetoprotein (AFP) receptor (AFPR) (human); experiment: AF-647 labeled rhAFP incubated with SKOV-3 cells at 37 C for 0.5, 2 and 5 h, plate reader fluorescence
[4] = biological target: alpha-fetoprotein (AFP) receptor (AFPR) (human); experiment: AF-647 labeled rhAFP incubated with OVCAR-3 cells at 37 C for 0.5, 2 and 5 h, plate reader fluorescence
[5] = biological target: alpha-fetoprotein (AFP) receptor (AFPR) (human); experiment: AF-647 labeled rhAFP incubated with COLO 205 cells at 37 C for 0.5, 2 and 5 h, plate reader fluorescence
[6] = biological target: alpha-fetoprotein (AFP) receptor (AFPR) (human); experiment: AF-647 labeled rhAFP incubated with H522 cells at 37 C for 0.5, 2 and 5 h, plate reader fluorescence
[7] = biological target: alpha-fetoprotein (AFP) receptor (AFPR) (human); experiment: AF-647 labeled rhAFP incubated with U-937 cells at 37 C for 0.5, 2 and 5 h, plate reader fluorescence
U937 = experiment: Cytotoxicity of bioconjugates of varying DPR (Series 1); type: cell-based, human; conditions: Series 1 bioconjugates
Method: (§1) A series of bioconjugates containing DM1, DM3, DM4 or ABZ981 synthesized under varying reaction conditions, resulting in different average DPRs. The cytotoxicity of these bioconjugates were evaluated in vitro in a panel of tumor cell lines (leukemia, breast, colorectal, ovarian and lung).

MCF-7 = experiment: as above; type: cell-based, human
Method: as §1

OV AR3 = experiment: Cytotoxicity of bioconjugates of varying DPR (Series 2); type: cell-based, human; conditions: Series 2 bioconjugates
Method: as §1

COLO-205 = experiment: as above; type: cell-based, human; conditions: Series 2 bioconjugates
Method: as §1

SKOV-3 [8] = experiment: as above; type: cell-based, human; conditions: Series 2 bioconjugates
Method: as §1

NCl-H522 = experiment: as above; type: cell-based, human; conditions: Series 2 bioconjugates
Method: as §1

ovarian cancer organoids = experiment: Ovarian cancer organoids from two patients; type: cell-based
MCF7 = experiment: Binding of AF-647 labeled rhAFP (ACT-101) to tumor cells; parameters: species or system human; conditions: MCF7, breast adenocarcinoma
Method: (§2) Prior to testing lead compounds in vitro, the expression of the AFP receptor and ability of cells to bind and take up fluorescently-labelled rhAFP was established in the U937 cell line as well as other cell lines, as in the study summarized in Table 1 below. In this study, rhAFP was labeled using the procedures described in the product protocol from commercially available Alexa Fluor-647 (AF-647) protein labeling kits. Binding experiments were performed in 96-well plates and fluorescence was measured using a plate reader. Tumor cells were cultured in suspension or plated in cell culture media. Each tumor cell line was incubated with AF-647 labeled rhAFP at 37° C. for 0.5, 2 and 5 hours (n=3 replicates). Incubation was stopped by chilling on ice. For cells in suspension, cells and culture medium were collected separately by centrifugation and subjected to repeat wash steps. For plated cells, trypsin/EDTA was used for cell detachment.

MOLT-4 = experiment: as above; parameters: species or system human; conditions: MOLT-4, acute lymphoblastic leukemia
Method: as §2

COLO 205 = experiment: as above; parameters: species or system human; conditions: COLO 205, metastatic colorectal adenocarcinoma
Method: as §2

OVCAR-3 = experiment: as above; parameters: species or system human; conditions: OVCAR-3, ovary adenocarcinoma; 37° C., 0.5, 2 and 5 hours
Method: as §2

U-937 = experiment: as above; parameters: species or system human; conditions: U-937, histiocytic lymphoma
Method: as §2

SKOV-3 [9] = experiment: as above; parameters: species or system human; conditions: SKOV-3, ovary adenocarcinoma
Method: as §2

H522 = experiment: as above; parameters: species or system human; conditions: H522, non-small cell lung adenocarcinoma
Method: as §2

B1: Mature [Asn233Gln]rhAFP(1-591), lacking glycosylation, produced in transgenic goats (ACT-101) (ligand)
chain: RTLHRNEYGIASILDSYQCTAEISLADLATIFFAQFVQEATYKEVSKMVKDALTAIEKPTGDEQSSGCLENQLPAFLEELCHEKEILEKYGHSDCCSQSEEGRHNCFLAHKKPTPASIPLFQVPEPVTSCEAYEEDRETFMNKFIYEIARRHPFLYAPTILLWAARYDKIIPSCCKAENAVECFQTKAATVTKELRESSLLNQHACAVMKNFGTRTFQAITVTKLSQKFTKVQFTEIQKLVLDVAHVHEHCCRGDVLDCLQDGEKIMSYICSQQDTLSNKITECCKLTTLERGQCIIHAENDEKPEGLSPNLNRFLGDRDFNQFSSGEKNIFLASFVHEYSRRHPQLAVSVILRVAKGYQELLEKCFQTENPLECQDKGEEELQKYIQESQALAKRSCGLFQKLGEYYLQNAFLVAYTKKAPQLTSSELMAITRKMAATAATCCQLSEDKLLACGEGAADIIIGHLCIRHEMTPVNPGVGQCCTSSYANRRPCFSSLVVDETYVPPAFSDDKFIFHKDLCQAQGVALQTMKQEFLINLVKQKPQITEEQLEAVIADFSGLLEKCCQGQEQEVCFAEEGQKLISKTRAALGV
modifications: fluorescent label, site not stated: Alexa Fluor-647 (Table 1), AlexaFluor488 (FIG. 1 competition), Alexa Fluor-488 or FITC (other studies)
For B1, the Highest AFP binding over 5 h Period (ng/million cells) [1] was 126, the Highest AFP binding over 5 h Period (ng/million cells) [2] was 19 and the Highest AFP binding over 5 h Period (ng/million cells) [3] was 31.3. For the same molecule, the Highest AFP binding over 5 h Period (ng/million cells) [4] was 71, the Highest AFP binding over 5 h Period (ng/million cells) [5] was 75 and the Highest AFP binding over 5 h Period (ng/million cells) [6] was 71.1. It also gave a Highest AFP binding over 5 h Period (ng/million cells) [7] of 84.3.

B2: HM023-2: Series 1 AFP bioconjugate, toxin printed DME (DM3), DPR 4.8 (conjugate, UniProt P02771 19-609, looked up)
Alpha-fetoprotein: B1 chain with Q233N
modifications: DM3 maytansinoid toxin conjugate, DPR 4.8
For B2, the IC50 (U937) was 1.6 nM, the “potency lower than ABZ981 and DM4 conjugates” value (MCF-7; MCF-7, Series 1) was “approximately 3 fold” and the IC50 (MCF-7; Series 1 bioconjugates) was 4.62 nM.

B3: AH00-3D: Series 2 AFP bioconjugate, toxin printed DME (DM3), DPR 4 (conjugate, UniProt P02771 19-609, looked up)
Alpha-fetoprotein: B1 chain with Q233N
modifications: DM3 maytansinoid toxin conjugate, DPR 4
B3 showed an IC50 (OV AR3) of 5.47 nM, an IC50 (COLO-205) of 10.7 nM and an IC50 (SKOV-3 [8]) of 22.8 nM. For the same molecule, the IC50 (NCl-H522) was 21.9 nM.

B4: ACT-101 (protein)
chain: B1 chain
B4 was tested, and the “binding and uptake of fluorescently labeled protein by organoids” value (ovarian cancer organoids) was “bound to and was rapidly taken up”, the “apoptosis, AnnexinV staining” value (ovarian cancer organoids; by 72 hr, even at low concentrations) was “innocuous to the cells” and the “Highest AFP binding over 5 h Period” value (MCF7) was 126 ng/million cells. For the same molecule, the “Highest AFP binding over 5 h Period” value (MOLT-4) was 19.0 ng/million cells, the “Highest AFP binding over 5 h Period” value (COLO 205) was 75.0 ng/million cells and the “Highest AFP binding over 5 h Period” value (OVCAR-3) was 71.0 ng/million cells. For the same molecule, the “Highest AFP binding over 5 h Period” value (U-937) was 84.3 ng/million cells, the “Highest AFP binding over 5 h Period” value (SKOV-3 [9]) was 31.3 ng/million cells and the “Highest AFP binding over 5 h Period” value (H522) was 71.1 ng/million cells.
